From article PMC7763228, “Structural Studies of HNA Substrate Specificity in Mutants of an Archaeal DNA Polymerase Obtained by Directed Evolution”

T1: TgoT_6G12 DNA polymerase (Thermococcus gorgonarius, UniProt P56689 1-773, V93Q;D141A;E143A;A485L;V589A;E609K;I610M;K659Q;E664Q;Q665P;R668K;D669Q;K671H;K67 …)
T1 sequence: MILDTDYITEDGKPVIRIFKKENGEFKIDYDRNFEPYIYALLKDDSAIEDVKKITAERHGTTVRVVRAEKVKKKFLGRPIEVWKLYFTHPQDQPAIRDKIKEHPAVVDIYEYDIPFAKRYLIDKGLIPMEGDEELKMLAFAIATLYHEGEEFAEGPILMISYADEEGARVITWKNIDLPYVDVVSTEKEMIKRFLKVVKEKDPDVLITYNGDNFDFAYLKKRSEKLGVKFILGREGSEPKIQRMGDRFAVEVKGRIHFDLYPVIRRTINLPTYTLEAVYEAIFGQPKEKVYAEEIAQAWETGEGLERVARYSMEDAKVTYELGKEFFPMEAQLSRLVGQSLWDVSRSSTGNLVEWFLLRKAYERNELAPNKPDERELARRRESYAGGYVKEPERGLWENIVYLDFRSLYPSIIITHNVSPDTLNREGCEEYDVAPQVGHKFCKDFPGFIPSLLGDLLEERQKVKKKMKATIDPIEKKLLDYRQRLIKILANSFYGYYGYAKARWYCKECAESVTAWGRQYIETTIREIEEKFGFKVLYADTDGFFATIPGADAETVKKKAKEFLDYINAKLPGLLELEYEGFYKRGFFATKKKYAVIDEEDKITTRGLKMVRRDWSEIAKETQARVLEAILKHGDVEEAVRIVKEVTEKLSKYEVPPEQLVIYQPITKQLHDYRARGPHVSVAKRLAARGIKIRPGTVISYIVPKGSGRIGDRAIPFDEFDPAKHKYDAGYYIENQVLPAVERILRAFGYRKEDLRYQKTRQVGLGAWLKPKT

B1: P5-T13 primer-template (dsDNA)
DNA 1: CGCAT
DNA 2: AACGGCTAATGCG
B2: P5-T13' primer-template (dsDNA)
DNA 1: CGCAT
DNA 2: AACGGCAAATGCG

Legend:
[1] = biological target: T1, TgoT_6G12 DNA polymerase; test: X-ray crystallography; binary complex, 2.8 A; ddTTP added; 10% PEG 20K, 0.1 M MES-NaOH pH 6.5; Co-crystallization: protein 5 mg/mL with 1.5x primer-template, 5 mM ddTTP or hCTP/ddCTP, 2 mM MnCl2 (not stated for the 6G12 binary DNA complex); incubated at 4 C (binary) or room temperature; 5-10% PEG 20K, 0.1 M MES-NaOH pH 6.0-6.5; protein buffer 50 mM Tris-HCl pH 7.5, 200 mM NaCl, 0.1 mM EDTA, 1 mM DTT; details: protein: recombinant, template 5' overhang 8 nt
[2] = biological target: T1, TgoT_6G12 DNA polymerase; test: X-ray crystallography; ternary complex with incoming ddTTP, 2 mM MnCl2, 3.15 A; 5% PEG 20K, 0.1 M MES-NaOH pH 6.0; Co-crystallization: protein 5 mg/mL with 1.5x primer-template, 5 mM ddTTP or hCTP/ddCTP, 2 mM MnCl2 (not stated for the 6G12 binary DNA complex); incubated at 4 C (binary) or room temperature; 5-10% PEG 20K, 0.1 M MES-NaOH pH 6.0-6.5; protein buffer 50 mM Tris-HCl pH 7.5, 200 mM NaCl, 0.1 mM EDTA, 1 mM …; details: protein: recombinant, template 5' overhang 8 nt

| Binder | binding result [1] | binding result [2] |
| --- | --- | --- |
| B1 | binds | – |
| B2 | – | binds |
